Columns and labels:
AncSZ = assay: phosphorylation enrichment, bacterial display (enrichment ratio); higher = better substrate or ligand; peptides without Tyr show the background
EPHB1 = EPHB1 (UniProt P54762); assay: as above
EPHB2 = EPHB2 (UniProt P29323); assay: as above
FGFR1 = FGFR1 (UniProt P11362); assay: as above
FGFR3 = FGFR3 (UniProt P22607); assay: as above
Fer (mouse) = assay: as above
Fes = Fes (UniProt P07332); assay: as above
Fyn = Fyn (UniProt P06241); assay: as above
Hck = Hck (UniProt P08631); assay: as above
Jak2 = Jak2 (UniProt O60674); assay: as above
MERTK = MERTK (UniProt Q12866); assay: as above
c-Abl (mouse) = assay: as above
c-Src = assay: as above
Grb2 SH2 = Grb2 SH2 (UniProt P62993); assay: SH2 binding enrichment of the phosphorylated peptide, bacterial display (enrichment ratio); higher = better substrate or ligand; peptides without Tyr show the background
SHP2-C SH2 = assay: as above
c-Src SH2 = assay: as above
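Throughout, for SH2 binding enrichment of the phosphorylated peptide, bacterial display: peptide library displayed on the E. coli surface as eCPX fusions, selected cells deep-sequenced, score is each peptide's frequency after selection divided by its frequency in the input.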
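Throughout, for phosphorylation enrichment, bacterial display: 11-residue human phosphosite peptides and single-mutation variants displayed on the E. coli surface, counted by deep sequencing, each peptide's frequency after selection divided by its frequency in the unselected input library; frequency after pTyr selection over input frequency; kinase dosed for 20-30% of maximal phosphorylation in three min.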

Chain of Fyn (P06241 whole entry, looked up): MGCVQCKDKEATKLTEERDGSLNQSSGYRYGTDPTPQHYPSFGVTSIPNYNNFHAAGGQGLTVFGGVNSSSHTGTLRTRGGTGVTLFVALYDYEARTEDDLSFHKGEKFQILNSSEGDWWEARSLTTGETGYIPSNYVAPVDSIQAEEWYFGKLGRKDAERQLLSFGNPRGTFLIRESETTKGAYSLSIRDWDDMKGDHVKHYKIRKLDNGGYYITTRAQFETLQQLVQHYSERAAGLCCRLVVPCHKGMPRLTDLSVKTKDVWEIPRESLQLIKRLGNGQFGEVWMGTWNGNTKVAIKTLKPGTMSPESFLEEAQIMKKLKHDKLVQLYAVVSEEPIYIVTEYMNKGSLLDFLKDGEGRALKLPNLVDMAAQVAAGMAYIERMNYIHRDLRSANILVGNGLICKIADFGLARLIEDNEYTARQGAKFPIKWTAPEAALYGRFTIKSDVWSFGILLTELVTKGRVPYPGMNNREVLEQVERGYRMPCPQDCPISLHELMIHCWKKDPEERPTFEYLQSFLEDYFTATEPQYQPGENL
Chain of EPHB1 (P54762 whole entry, looked up): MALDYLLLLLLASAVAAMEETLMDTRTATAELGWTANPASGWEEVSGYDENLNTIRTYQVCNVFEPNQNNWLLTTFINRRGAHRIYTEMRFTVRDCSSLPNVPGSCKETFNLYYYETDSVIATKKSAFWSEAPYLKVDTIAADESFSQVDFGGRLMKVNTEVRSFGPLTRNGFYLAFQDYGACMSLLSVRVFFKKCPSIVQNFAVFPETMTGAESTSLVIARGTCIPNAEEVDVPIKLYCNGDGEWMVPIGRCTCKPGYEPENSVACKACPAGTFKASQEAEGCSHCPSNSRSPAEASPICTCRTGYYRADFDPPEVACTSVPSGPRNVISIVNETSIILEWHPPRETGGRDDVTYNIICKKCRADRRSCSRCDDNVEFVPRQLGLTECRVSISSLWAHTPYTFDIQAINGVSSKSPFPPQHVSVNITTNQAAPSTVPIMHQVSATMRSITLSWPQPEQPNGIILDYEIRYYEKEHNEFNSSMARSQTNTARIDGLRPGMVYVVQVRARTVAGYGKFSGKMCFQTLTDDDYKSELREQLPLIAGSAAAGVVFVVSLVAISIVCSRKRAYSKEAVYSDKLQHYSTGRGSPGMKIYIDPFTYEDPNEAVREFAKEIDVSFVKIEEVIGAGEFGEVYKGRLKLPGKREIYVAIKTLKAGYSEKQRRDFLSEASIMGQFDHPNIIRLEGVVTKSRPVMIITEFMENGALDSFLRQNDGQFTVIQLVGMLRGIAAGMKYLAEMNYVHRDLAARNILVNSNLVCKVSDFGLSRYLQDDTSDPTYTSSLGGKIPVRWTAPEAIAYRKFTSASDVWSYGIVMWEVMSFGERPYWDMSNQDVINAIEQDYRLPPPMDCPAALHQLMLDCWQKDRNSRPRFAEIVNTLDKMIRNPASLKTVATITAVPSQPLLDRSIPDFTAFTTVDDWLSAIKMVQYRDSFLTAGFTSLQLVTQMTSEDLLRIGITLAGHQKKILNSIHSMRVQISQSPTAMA
Chain of MERTK (Q12866 whole entry, looked up): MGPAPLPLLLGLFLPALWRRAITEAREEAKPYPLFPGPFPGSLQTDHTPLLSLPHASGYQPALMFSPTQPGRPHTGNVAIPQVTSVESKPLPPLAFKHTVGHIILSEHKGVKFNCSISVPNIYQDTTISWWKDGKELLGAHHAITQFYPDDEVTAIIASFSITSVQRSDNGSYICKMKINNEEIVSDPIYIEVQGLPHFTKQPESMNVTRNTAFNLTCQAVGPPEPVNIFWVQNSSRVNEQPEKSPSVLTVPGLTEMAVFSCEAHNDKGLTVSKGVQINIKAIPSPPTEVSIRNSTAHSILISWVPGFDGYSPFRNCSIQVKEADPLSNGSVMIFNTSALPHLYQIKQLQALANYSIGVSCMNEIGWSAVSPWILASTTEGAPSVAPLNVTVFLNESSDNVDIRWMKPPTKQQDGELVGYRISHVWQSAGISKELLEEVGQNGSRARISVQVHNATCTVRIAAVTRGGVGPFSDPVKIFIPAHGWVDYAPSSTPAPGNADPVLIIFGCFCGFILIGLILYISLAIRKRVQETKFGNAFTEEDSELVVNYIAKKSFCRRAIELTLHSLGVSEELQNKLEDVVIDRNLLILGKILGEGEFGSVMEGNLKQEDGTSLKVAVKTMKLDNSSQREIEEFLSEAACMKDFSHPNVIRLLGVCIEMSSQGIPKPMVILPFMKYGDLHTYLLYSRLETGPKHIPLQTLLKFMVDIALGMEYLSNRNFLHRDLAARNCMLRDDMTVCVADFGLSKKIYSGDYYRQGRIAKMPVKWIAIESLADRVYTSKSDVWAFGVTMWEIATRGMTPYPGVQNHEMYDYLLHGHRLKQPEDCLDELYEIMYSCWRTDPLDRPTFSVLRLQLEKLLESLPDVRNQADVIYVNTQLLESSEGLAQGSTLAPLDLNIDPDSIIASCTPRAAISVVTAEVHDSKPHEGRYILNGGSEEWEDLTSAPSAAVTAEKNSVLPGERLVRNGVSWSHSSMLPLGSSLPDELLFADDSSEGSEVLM
Chain of EPHB2 (P29323 whole entry, looked up): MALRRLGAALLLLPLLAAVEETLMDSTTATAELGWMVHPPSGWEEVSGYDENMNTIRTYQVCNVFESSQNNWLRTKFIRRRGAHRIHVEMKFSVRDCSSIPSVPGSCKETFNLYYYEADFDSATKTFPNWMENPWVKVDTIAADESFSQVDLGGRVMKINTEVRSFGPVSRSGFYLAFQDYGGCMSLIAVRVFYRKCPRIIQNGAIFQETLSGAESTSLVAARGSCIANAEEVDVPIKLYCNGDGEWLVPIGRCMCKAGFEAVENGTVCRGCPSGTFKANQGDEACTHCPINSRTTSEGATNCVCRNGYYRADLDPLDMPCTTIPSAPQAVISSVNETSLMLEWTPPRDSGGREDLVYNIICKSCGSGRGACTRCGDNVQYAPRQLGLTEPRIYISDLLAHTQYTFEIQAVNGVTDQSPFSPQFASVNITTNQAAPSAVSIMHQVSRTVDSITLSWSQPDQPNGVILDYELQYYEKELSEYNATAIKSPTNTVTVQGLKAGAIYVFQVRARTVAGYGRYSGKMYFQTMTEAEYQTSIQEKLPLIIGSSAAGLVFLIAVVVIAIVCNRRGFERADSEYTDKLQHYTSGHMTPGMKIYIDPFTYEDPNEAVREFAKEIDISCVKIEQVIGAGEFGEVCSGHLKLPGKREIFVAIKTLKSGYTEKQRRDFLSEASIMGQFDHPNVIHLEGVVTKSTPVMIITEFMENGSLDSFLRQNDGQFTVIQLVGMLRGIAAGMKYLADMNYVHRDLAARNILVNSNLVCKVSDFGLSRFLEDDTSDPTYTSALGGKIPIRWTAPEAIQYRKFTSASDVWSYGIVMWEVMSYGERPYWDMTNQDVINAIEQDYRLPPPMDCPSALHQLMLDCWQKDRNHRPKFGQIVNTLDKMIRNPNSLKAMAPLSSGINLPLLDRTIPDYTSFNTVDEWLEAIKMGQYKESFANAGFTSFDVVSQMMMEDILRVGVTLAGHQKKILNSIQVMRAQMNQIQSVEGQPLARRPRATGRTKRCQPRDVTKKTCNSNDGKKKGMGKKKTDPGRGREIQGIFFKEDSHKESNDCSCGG
Chain of Fes (P07332 whole entry, looked up): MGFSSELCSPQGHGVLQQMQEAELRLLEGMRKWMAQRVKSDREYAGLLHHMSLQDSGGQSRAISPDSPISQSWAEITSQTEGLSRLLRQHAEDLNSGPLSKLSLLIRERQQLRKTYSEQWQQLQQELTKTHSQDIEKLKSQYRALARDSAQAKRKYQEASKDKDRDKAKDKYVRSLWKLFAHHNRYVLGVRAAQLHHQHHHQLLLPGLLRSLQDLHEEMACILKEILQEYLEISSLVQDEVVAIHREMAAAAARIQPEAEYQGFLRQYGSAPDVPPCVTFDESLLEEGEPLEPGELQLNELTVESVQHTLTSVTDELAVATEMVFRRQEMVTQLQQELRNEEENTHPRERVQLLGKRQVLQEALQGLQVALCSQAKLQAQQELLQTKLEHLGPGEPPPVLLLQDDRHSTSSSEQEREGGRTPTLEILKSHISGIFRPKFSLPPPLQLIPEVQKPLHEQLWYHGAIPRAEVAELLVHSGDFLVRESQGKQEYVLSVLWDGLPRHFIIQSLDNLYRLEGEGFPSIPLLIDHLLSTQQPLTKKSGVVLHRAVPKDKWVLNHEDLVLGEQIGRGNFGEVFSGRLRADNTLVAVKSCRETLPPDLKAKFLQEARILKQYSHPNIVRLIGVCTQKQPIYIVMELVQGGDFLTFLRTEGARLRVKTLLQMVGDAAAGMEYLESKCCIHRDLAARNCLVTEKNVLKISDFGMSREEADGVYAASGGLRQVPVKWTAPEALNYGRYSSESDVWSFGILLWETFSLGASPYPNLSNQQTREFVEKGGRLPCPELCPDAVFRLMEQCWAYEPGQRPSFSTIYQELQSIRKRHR
Chain of Hck (P08631 whole entry, looked up): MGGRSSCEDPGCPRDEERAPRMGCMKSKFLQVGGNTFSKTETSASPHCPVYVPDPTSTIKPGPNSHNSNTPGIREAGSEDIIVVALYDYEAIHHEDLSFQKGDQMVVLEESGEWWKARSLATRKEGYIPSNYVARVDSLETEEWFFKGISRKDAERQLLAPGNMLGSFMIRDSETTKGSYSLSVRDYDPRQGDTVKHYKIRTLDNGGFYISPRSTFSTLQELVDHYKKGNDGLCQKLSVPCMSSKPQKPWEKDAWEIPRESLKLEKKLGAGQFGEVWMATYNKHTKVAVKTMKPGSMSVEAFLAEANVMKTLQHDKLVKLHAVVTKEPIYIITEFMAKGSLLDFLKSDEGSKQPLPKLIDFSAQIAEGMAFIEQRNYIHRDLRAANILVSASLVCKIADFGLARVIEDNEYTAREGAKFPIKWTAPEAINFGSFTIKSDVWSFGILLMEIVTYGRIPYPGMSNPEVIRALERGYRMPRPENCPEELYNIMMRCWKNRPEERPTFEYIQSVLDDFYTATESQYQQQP

Row | SH2 binding enrichment (Grb2 SH2) | SH2 binding enrichment (SHP2-C SH2) | SH2 binding enrichment (c-Src SH2) | Sequence | phosphorylation enrichment (AncSZ) | phosphorylation enrichment (EPHB1) | phosphorylation enrichment (EPHB2) | phosphorylation enrichment (FGFR1) | phosphorylation enrichment (FGFR3) | phosphorylation enrichment (Fer (mouse)) | phosphorylation enrichment (Fes) | phosphorylation enrichment (Fyn) | phosphorylation enrichment (Hck) | phosphorylation enrichment (Jak2) | phosphorylation enrichment (MERTK) | phosphorylation enrichment (c-Abl (mouse)) | phosphorylation enrichment (c-Src)
1 | 0.823 | 0.83 | 0.684 | LADMNYVHCDL [EPHB2_Y742_R745C] | 1.01 | 0.889 | 0.578 | 0.811 | 1.09 | 0.535 | 0.97 | 0.57 | 0.469 | 0.728 | 0.448 | 0.652 | 0.369
2 | 1.38 | 0.874 | 1.2 | LAGRFYALRSM [CKB_Y174_K177R_YF] | 1.29 | 0.583 | 0.944 | 0.598 | 1.84 | 0.843 | 1.92 | 0.737 | 0.821 | 0.59 | 0.509 | 0.642 | 0.571
3 | 0.539 | 0.562 | 0.42 | LANNEYYFRVC | 1.6 | 0.682 | 0.993 | 3.72 | 3.11 | 0.62 | 1.27 | 0.743 | 0.794 | 1.51 | 0.823 | 0.573 | 0.516
4 | 0.961 | 0.884 | 0.801 | LEITWYPFDVE [RIPOR2_Y316] | 1.49 | 1.21 | 1.05 | 0.679 | 1.55 | 0.827 | 2.12 | 0.751 | 0.691 | 2.3 | 0.461 | 1.25 | 0.704

More lines, now with the values behind:

Row | Sequence | SH2 binding enrichment (Grb2 SH2) | SH2 binding enrichment (SHP2-C SH2) | SH2 binding enrichment (c-Src SH2) | phosphorylation enrichment (AncSZ) | phosphorylation enrichment (EPHB1) | phosphorylation enrichment (EPHB2) | phosphorylation enrichment (FGFR1) | phosphorylation enrichment (FGFR3) | phosphorylation enrichment (Fer (mouse)) | phosphorylation enrichment (Fes) | phosphorylation enrichment (Fyn) | phosphorylation enrichment (Hck) | phosphorylation enrichment (Jak2) | phosphorylation enrichment (MERTK) | phosphorylation enrichment (c-Abl (mouse)) | phosphorylation enrichment (c-Src)
5 | LDPDSYNVFEN [FOXC1_Y159_M161V] | 0.74 | 0.752 | 1.59 | 2.1 | 0.728 | 0.703 | 0.527 | 1.31 | 0.742 | 2.2 | 0.643 | 0.613 | 2.3 | 1.04 | 1.93 | 0.915
6 | LDVDVYGPSVP [NUBPL_Y109] | 0.868 | 0.551 | 0.498 | 1.06 | 0.622 | 0.536 | 0.483 | 0.72 | 1.2 | 1.28 | 1.47 | 1.77 | 0.829 | 0.498 | 1.4 | 1.33
7 | LERDIYNREEF [HLA-DPB1_Y59_Y57D] | 0.841 | 1.07 | 0.678 | 1.19 | 0.706 | 0.718 | 1.03 | 0.906 | 0.672 | 1.62 | 1.23 | 1.17 | 1.3 | 0.49 | 1.39 | 1.18
8 | LERYIYNREEY [HLA-DPB1_Y59_F64Y] | 1.08 | 0.642 | 1.8 | 1.08 | 0.568 | 0.982 | 0.726 | 0.903 | 0.519 | 1.25 | 1.77 | 1.72 | 0.998 | 0.719 | 0.752 | 3.15
